{
  "source": "patent US20240059782A1",
  "about": "(AGILENT TECHNOLOGIES, published 2024)",
  "key": {"[1]": {"target": "T1, human B-cell maturation antigen (BCMA) (human, UniProt Q02223 1-184)", "T1 construct": "whole, on cells; Endogenous BCMA in tissue sections and BCMA-positive cell lines; also called tumor necrosis factor receptor superfamily member 17; TNFRSF17", "T1 sequence (looked up)": "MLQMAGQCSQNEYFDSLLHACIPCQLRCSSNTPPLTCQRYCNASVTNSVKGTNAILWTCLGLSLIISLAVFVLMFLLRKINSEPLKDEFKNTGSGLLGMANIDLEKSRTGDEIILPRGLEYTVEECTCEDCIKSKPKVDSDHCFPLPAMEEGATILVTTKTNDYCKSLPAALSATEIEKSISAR", "experiment": "supersensitive IHC on reactive lymph node"}, "[2]": {"target": "T2, recombinant fusion protein containing the entire intracellular domain of BCMA (amino acids 78-184) (human, UniProt Q02223 78-184)", "T2 construct": "range 78-184; also called intracellular BCMA antigen; the antigen", "T2 sequence (looked up)": "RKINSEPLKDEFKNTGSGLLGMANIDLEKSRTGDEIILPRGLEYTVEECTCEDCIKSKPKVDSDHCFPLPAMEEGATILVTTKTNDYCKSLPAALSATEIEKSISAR", "experiment": "BLI (BLItz), recombinant antibody on the immunising antigen"}, "[3]": {"target": "T1, human B-cell maturation antigen (BCMA)", "experiment": "supersensitive IHC on normal colon"}, "[4]": {"target": "T3, recombinant fusion protein containing the entire extracellular domain of human BCMA (amino acids 1-54) in … (human, UniProt Q02223 1-54)", "T3 construct": "range 1-54; Expressed in HEK cells; also called BCMA antigen; extracellular BCMA antigen; not shown: rabbit Fc domain", "T3 sequence (looked up)": "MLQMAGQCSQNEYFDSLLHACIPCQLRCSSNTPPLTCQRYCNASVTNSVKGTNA", "experiment": "BLI (BLItz), recombinant antibody on the immunising antigen"}, "[5]": {"target": "T1, human B-cell maturation antigen (BCMA)", "experiment": "standard IHC (Envision FLEX) on reactive lymph node"}},
  "data": [
    {"binder": "anti-human BCMA antibody clone 5C1 (intracellular) (antibody, V domains shown, Rabbit monoclonal IgG/kappa1; also called B cell clone 5C1; intracellular clone 5C1) VH: QSLEESRGGLFKPTDTLTLTCTVSGFSLKTYVINWVRQAPGNGLEWIGIIDTGDMTYYASWAKSRSTITRNTNENTVTLKMTSLTAADTATYFCASGDIWGPGTLVTVSS VL: AQVLTQTASPVSAAVGGTVTINCQASQSVYSNWLSWFQQKPGQPPKRLIYSASTLASGVSSRFKGSGSGTQFTLTISDVQCDDAATYYCLGEFNCARADCRAFGGGTEVVVKG", "values": [
      {"measurement": "binding result", "setting": "[1]", "value": "binds"},
      {"measurement": "binding result", "setting": "[2]", "value": "binds"}
    ]},
    {"binder": "anti-human BCMA antibody clone 9H5 (Extracellular) (antibody, V domains shown, Rabbit monoclonal IgG/kappa1; The chains are built here from V + constant entries so that the signal peptide is left out; Supersensitive IHC used B-cell culture supernatant; BLI and standard IHC used recombinant antibody from HEK293-6E cells; also called B cell clone 9H5; BCMA clone 9H5) VH: QSLEESGGRLVTPGGSLTLTCTVSGFSLSAYAMSWVRQAPGKGLEWIGYINYDGIAYYTNWAKGRFTISKTSTTVDLKITSPTTEDTAAYFCASDLLGVFNLWGQGTLVTVSS VL: AAVLTQTASPVSAAVGGTVTINCQASQSVYSNNRLSWFQQKPGQPPKLLIYYASFLASGVPSRFKGSGSGAQFTLTISDLQCDDAATYYCAGGYISYSDNAFGGGTEVVVKG", "values": [
      {"measurement": "binding result", "setting": "[3]", "value": "binds"},
      {"measurement": "binding result", "setting": "[4]", "value": "binds"}
    ]},
    {"binder": "anti-human BCMA antibody clone 10A2 (Extracellular) (antibody, V domains shown, Rabbit monoclonal IgG/kappa1; The chains are built here from V + constant entries so that the signal peptide is left out; Supersensitive IHC used B-cell culture supernatant; BLI and standard IHC used recombinant antibody from HEK293-6E cells; also called B cell clone 10A2; BCMA clone 10A2) VH: QSVEESGGRLVTPGTPLTLTCTASGFSLTTYAMGWVRQAPGKGLEWIGYIWSSGTTDYASWAKGRFTISKTSPTVDLKMTSPTTEDTATYFCARYINYVTGDLWGQGTLVTVSS VL: AQVLTQTPSPVSADVGGTVTINCQASQSVYNNVLLAWYQQKAGQPPKLLIYKASTLASGVSSRFKGSGSGTQFTLTISGVQCDDAATYYCQGEFSCSSADCTAFGGGTEVVVKG", "values": [
      {"measurement": "binding result", "setting": "[5]", "value": "binds"},
      {"measurement": "binding result", "setting": "[4]", "value": "binds"}
    ]}
  ]
}
